Key:
[1] = NBT photoreduction on NATIVE-PAGE electrophoresis (anti-radical / antioxidant activity of SODs); format: biochemical; settings: currently used bacterial host strains, rare codons
Protocol: The expression products of the first variants for each kind of constructions were used to validate the anti-radical activity of the various biosynthetic SODs obtained. These activities were verified by the reduction of NBT on native PAGE.
The melon pseudo cytosolic Cu—ZnSOD and the human or tomato cytosolic Cu—ZnSOD as well as their equivalents bearing the two different gliadin peptides are analysed for their antiradical activities. These activities are verified according to the NBT photoreduction on NATIVE-PAGE electrophoresis (Beauchamps and Fridovitch, 1971).
The Cucumis melo recombinant SOD as well as its equivalents bearing the gliadin peptide (Gli-SOD) were produced and purified according to a multiple step denaturation/renaturation protocol. […] The potentiality of both recombinant proteins (Cucumis melo SOD and Gli-SOD) to reduce NBT on NATIVE-PAGE electrophoresis (NBT photoreduction, Beauchamps and Fridovitch, 1971) was evaluated and compared with that of the natural Cucumis melo extract.
The migration profile and the NBT reduction obtained on Native-PAGE electrophoresis corroborate the correct and efficient refolding of both recombinant proteins, SOD or Gli-SOD (4 000-10 000 UNBT/mg protein) which is a mandatory event to display their antioxidant activity.

[2] = test system: foot oedema induced by carrageenan or adriamycin; settings: cited from earlier work; for anti-inflammatory activity in rats: studies in rats
HT-29 cell line = test: HT-29 cell proliferation (cell count, GUAVA PC Viacount); format: cell-based, human; settings: for toxic effect on HT-29 proliferation curves: 10 units, sampled over 72 hours; for dose that does not modify growth of the HT-29 cell line: dose range 0 to 50 NBT units
Protocol: The human colon carcinoma cell line HT-29 (ATCC HTB-38) is grown in 10% foetal bovine serum (FBS) in Dulbecco's modified Eagle's medium (D-MEM) supplemented with GlutaMAX-1, 4.5 g/L D-Glucose, sodium pyruvate and 100 unit/ml of penicillin/streptomycin. For each experiment (n=4) approximately 2×10^4 cells/well were incubated for 24 hours at 37° C. in 5% CO2 atmosphere. Prior to any experiment, existing culture medium was replaced by a fresh one.
After the incubation period, cell monolayers were detached with a PBS solution containing 0.05% trypsin and 0.5 mM EDTA, washed in calcium-free and magnesium-free phosphate-buffered saline solution (PBS) and collected by centrifugation. Cells were then counted in a hemocytometer by using the GUAVA PC Viacount Flex Kit and reported in cells/ml to estimate cellular proliferation.
In the current experiment, cultures are periodically sampled over a 72 hour period to assess the proliferation rate and the viability of HT-29 cells after exposure or not to various components, (a) 10 μM of gliadin peptide 982 (Triticum vulgare, QQPYPQPF, SEQ. ID No. 01) representing at least 100 times less than the concentration previously related to induce a significant enterocyte agglutination (De Vicenzi. M et al. 1997 Toxicology, vol 120 p 207) or enterocyte apoptosis (Giovannini et al. 2000, Toxicology, vol 145 p 63).
For recombinant protein dose-response experiments, HT-29 cells were incubated with increasing concentrations of recombinant SOD or Gli-SOD (0 to 50 NBT units) for a further 48 hours.
Cultures were periodically sampled over 72 hours to assess the proliferation rate and the viability of HT-29 cells after exposure or not to various components, (a) 10 units of recombinant SOD or (b) 10 units of recombinant SOD associated with 10 μM of peptide 982 or finally (c) 10 units of recombinant Gli-SOD (SOD physically linked to gliadin peptide 982).

HT-29 cells [3] = test: Orexin-induced apoptosis of HT-29 cells, annexin V test; format: cell-based, human; settings: 50 units + 1 μM orexin; for rate of orexin-induced apoptosis: orexin alone 40%
Protocol: (§1) Apoptosis was analyzed in HT-29 cell line using the GUAVA Nexin Kit which discriminates between apoptotic and non apoptotic cells. This method utilizes annexin V Phycoerythrin to detect phopshatidylserine (PS) (Martin et al. 1995, J Exp Med vol 182 p 1545) on the external membrane of apoptotic cells.
(§2) After 24 hours, cell monolayers are detached with a PBS solution containing trypsin 0.05% and EDTA 0.5 mM, washed in calcium-free and magnesium-free phosphate-buffered saline solution (PBS) and apoptotic cell staining is performed and analysed with a GUAVA PCA system.
(§3) For the basal apoptotic inhibition (part A), the culture medium was replaced with fresh culture medium containing or absent 10 units of both recombinant SODs (NBT units). For the Orexin induced-apoptotic inhibition (part B), the culture medium was replaced with fresh culture medium containing 1 μM of orexin and/or 50 units of each recombinant SOD (NBT units). Results are expressed as the percentage of apoptotic annexin V-PE positive cells and are the means of four points.
In a second experiment, the potent anti-apoptotic effect of the recombinant SOD or Gli-SOD was confirmed when apoptosis was induced via orexin supplementation to the HT-29 cells culture medium. In this case, the rate of HT-29 cell going into apoptosis may be enhanced from 20% evaluated for the basal level to 40% by addition of 1 μM of Orexin in the culture medium.

HT-29 cells [4] = test: Xanthine/xanthine oxidase (X/XO)-induced apoptosis of HT-29 cells, annexin V test; format: cell-based, human; settings: 50 units, 10mU of X/XO complex
Protocol: as §1, §2
In this third experiment, tests of the potent anti-apoptotic effect of the recombinant SOD or Gli-SOD according to the invention on the possible Fas/FasL pathway via Xanthine/xanthine oxidase induction in the HT-29 cells culture medium were carried out.
In this case, the rate of HT-29 cell going into apoptosis may be enhanced from 20% evaluated for the basal level to 30% by addition of 10mU of X/XO complex in the culture medium. Addition of 50 units of recombinant melon SOD or again 50 units of recombinant Gli-SOD to the culture medium, prevented the X/XO-induced apoptotic pathway in the HT-29 cells respectively by 71% and 86%.

HT-29 cells [5] = test: Binding of SOD or Gli-SOD to HT-29 cells, FITC immunohistochemistry with EP-1669; format: cell-based, human; settings: 50 units, 24 hours
Protocol: For each experiment (n=4), approximately 15×10^3 cells/lamella layer were incubated for 24 hours at 37° C. in 5% CO2 atmosphere. Prior to any experiment, existing culture medium was replaced by a fresh one.
The cell monolayer was then incubated in a fresh medium with or without 50 units of SOD or Gli-SOD for a further 24 hours, washed in calcium-free and magnesium-free phosphate-buffered saline solution (PBS) and then analyzed by immunohistochemistry. Binding of Gli-SOD to HT-29 cells was analyzed using the EP-1669 as a first antibody (rabbit IgG anti-SOD, dilution 1/2000°) for 30 minutes followed by a second FITC-coupled antibody for further 30 minutes (goat anti-rabbit antibody, dilution 1/100). This method was chosen rather than flow cytometry because the latter technique requires that cells be harvested by trypsin treatment and collected prior to analysis, and such treatment would likely have negatively impacted the interaction between the Gli-SOD molecules and cell surfaces.

HT-29 cells [6] = test: Basal apoptosis of HT-29 cells, annexin V test (GUAVA Nexin Kit); format: cell-based, human; settings: 10 units, 24 hours; for rate of basal apoptosis (annexin V positive cells): basal 20% (20.5)
Protocol: as §1, §2, §3

Human CuZn-SOD: recombinant human cytosolic CuZn-SOD expressed in bacteria
activity of biosynthetic SOD expressed in the applicant's bacterial system [1]: functional

homologous rat CuZn-SOD: rat CuZn superoxide dismutase
anti-inflammatory activity in rats [2]: no anti-inflammatory activity

bovine CuZn-SODs: bovine CuZn superoxide dismutase
anti-inflammatory activity after oral administration ([2]; administered orally, using liposomes or ceramides, rat leg oedema induced by carrageenan): reduction of rat leg oedema induced by carrageenan
anti-inflammatory activity in rats [2]: such an anti-inflammatory activity

QQPYPQPQPF (Triticum vulgare) [peptide 982, 10 amino acids peptide of A-gliadin, Triticum vulgare]
effect on HT-29 cell line proliferation at 24 hours (HT-29 cell line; 10 μM peptide, 24 hours of culture): a major effect on HT-29 cell line proliferation, but exclusively at 24 hours of culture
effect on HT-29 proliferation after 48 hours (HT-29 cell line; 10 μM peptide, 48 hours): the proliferation returns to its basal level

B1: recombinant Gli-SOD: recombinant melon CuZn SOD fused at its N-terminal part to A-gliadin peptide QQPYPQPQPF (peptide 982) (protein)
chain: QQPYPQPQPFMVKAVAVLKGTSDVEGVVTLTQEDDGPTSVNVRITGLTPGPHGFHLHEFGDTTNGCISTGAHFNPNKLTHGAPEDEIRHAGDLGNIIANADGVAEATIVDNQIPLSGPNSVVGRAFVVHELADDLGKGGHELSLTTGNAGGRLACGVVGLTPV
modifications: Cucumis melo
inhibition of orexin-induced apoptosis (HT-29 cells [3]): 54.7%
rate of orexin-induced apoptosis (HT-29 cells [3]): 28.7%
prevention of X/XO-induced apoptotic pathway (HT-29 cells [4]): 86%
"peptide effect" on HT-29 proliferation at 24 hours (HT-29 cell line; 10 units SOD coupled to or associated with 10 μM peptide 982): no “peptide effect” at 24 hours of culture
toxic effect on HT-29 proliferation curves (HT-29 cell line): neither SOD nor Gli-SOD exert any toxic effect
dose that does not modify growth of the HT-29 cell line (HT-29 cell line; 48 hours): 5 units
presence of SOD in the vicinity of the cells (FITC fluorescence) (HT-29 cells [5]): apparently to a greater extent
inhibition of basal apoptosis (HT-29 cells [6]): 18.1%
rate of basal apoptosis (annexin V positive cells) (HT-29 cells [6]): 16.8%

B2: biosynthetic tomato cytosolic SODs: recombinant Lycopersicon esculentum cytosolic CuZn-SOD expressed in bacteria (protein, listed as Lycopersicon esculentum)
chain: MVKAVAVLNSSEGVSGTILFTQDGDAPTTVNGNISGLKPGLHGFHVHALGDTTNGCMSTGPHYNPAGKEHGAPEDEVRHAGDLGNITVGEDGTASFTITDKQIPLTGPQSIIGRAVVVHADPDDLGKGGHELSKSTGNAGGRIACGIIGLQG
activity of biosynthetic SOD expressed in the applicant's bacterial system [1]: a lot less active

B3: human Mn-SOD: human manganese superoxide dismutase (protein, UniProt P04179 25-222, looked up)
Superoxide dismutase [Mn], …: KHSLPDLPYDYGALEPHINAQIMQLHHSKHHAAYVNNLNVTEEKYQEALAKGDVTAQIALQPALKFNGGGHINHSIFWTNLSPNGGGEPKGELLEAIKRDFGSFDKFKEKLTAASVGVQGSGWGWLGFNKERGHLQIAACPNQDPLQGTTGLIPLLGIDVWEHAYYLQYKNVRPDYLKAIWNVINWENVTERYMACKK
anti-inflammatory activity in rats [2]: no anti-inflammatory activity

B4: recombinant SOD: recombinant Cucumis melo CuZn superoxide dismutase (pseudo-cytosolic form) expressed in E. coli, His-tag cleaved, refolded (protein)
chain: MVKAVAVLKGTSDVEGVVTLTQEDDGPTSVNVRITGLTPGPHGFHLHEFGDTTNGCISTGAHFNPNKLTHGAPEDEIRHAGDLGNIIANADGVAEATIVDNQIPLSGPNSVVGRAFVVHELADDLGKGGHELSLTTGNAGGRLACGVVGLTPV
modifications: Cucumis melo
inhibition of orexin-induced apoptosis (HT-29 cells [3]): 26%
rate of orexin-induced apoptosis (HT-29 cells [3]): 34.4%
prevention of X/XO-induced apoptotic pathway (HT-29 cells [4]): 71%
toxic effect on HT-29 proliferation curves (HT-29 cell line): neither SOD nor Gli-SOD exert any toxic effect
dose that does not modify growth of the HT-29 cell line (HT-29 cell line; 48 hours): 10 units
presence of SOD in the vicinity of the cells (FITC fluorescence) (HT-29 cells [5]): clearly visible
inhibition of basal apoptosis (HT-29 cells [6]): 12.2%
rate of basal apoptosis (annexin V positive cells) (HT-29 cells [6]): 18%

B5: yeast CuZn-SODs: yeast CuZn superoxide dismutase (protein, UniProt P00445 2-154, looked up)
Superoxide dismutase [Cu-Zn]: VQAVAVLKGDAGVSGVVKFEQASESEPTTVSYEIAGNSPNAERGFHIHEFGDATNGCVSAGPHFNPFKKTHGAPTDEVRHVGDMGNVKTDENGVAKGSFKDSLIKLIGPTSVVGRSVVIHAGQDDLGKGDTEESLKTGNAGPRPACGVIGLTN
anti-inflammatory activity in rats [2]: pro-inflammatory activity

Source: patent US8092794B2, “Pharmaceutical compositions comprising SODs and prolamine based peptide fragments” (Isocell Pharma S.A., priority 2006, dated 2012)
